Measured values as given in publication PMC3447759.

Legend:
[1] = target: GAGE12I (Lumier fusion, HEK293) (human); assay: pull-down; Lumier (luminescence-based mammalian interactome mapping): protein A and Renilla luciferase fusions co-expressed in HEK293, lysed in 20 mM Tris-HCl pH 7.5, 250 mM NaCl, 1% Triton X-100, 10 mM EDTA, 10 mM DTT with Benzonase; protein A fusions isolated on IgG-coated magnetic beads …; luciferase bound/input normalised to a protein A dimer control and given as Z scores; both orientations
[2] = test system: GAGE12I; assay: EMSA; conditions: EMSA: 20 mM Tris pH 7.4, 50 mM NaCl, 1 mM DTT, 5 min or as indicated, 20 C, 1 pg/ul DNA. Calf thymus DNA-cellulose pull-downs (P1, P2; undefined DNA, not …)

Sequence of GAGE12I (Lumier fusion, HEK293) (human) (A1L429 whole entry, the tested form may be a part): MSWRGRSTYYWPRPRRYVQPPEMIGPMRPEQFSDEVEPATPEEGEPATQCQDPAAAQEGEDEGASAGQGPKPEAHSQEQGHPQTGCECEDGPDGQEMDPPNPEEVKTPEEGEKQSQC

Substance | Z score [1] | K half [2] [µM]
full-length GCL (Lumier fusion, HEK293) (from UniProt Q96IK5 1-515) (natural protein) | 3.4 to 5.3 | 
pUC19 90-bp EcoRI-PvuII fragment |  | < 7.3
